Ends that are not written are not given here.

As a reminder, the stoichiometry N is a count of units in the complex or per binding partner.

In experiment [1] the target is mouse P1+P2 (stoichiometric mixture containing equal amounts of protamines P1 and P2) (mouse). The experiment in a line: native gel or EMSA. For orientation: Mobility shift assays separate free from complexed probe on a gel.
The target of experiment [2] is T1, Mouse nucleoplasmin M.NPM2 (full murine NPM2) (mouse, UniProt Q80W85 1-207).
T1 sequence: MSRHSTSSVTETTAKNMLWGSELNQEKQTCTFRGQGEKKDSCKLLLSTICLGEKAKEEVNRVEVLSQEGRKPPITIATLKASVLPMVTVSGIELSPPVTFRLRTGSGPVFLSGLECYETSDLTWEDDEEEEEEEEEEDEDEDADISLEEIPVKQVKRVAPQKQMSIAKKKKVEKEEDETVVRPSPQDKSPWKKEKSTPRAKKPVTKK
The experiment in a line: cross-linking.

B1: Mouse nucleoplasmin M.NPM2 (full murine NPM2) (natural protein)
chain: MSRHSTSSVTETTAKNMLWGSELNQEKQTCTFRGQGEKKDSCKLLLSTICLGEKAKEEVNRVEVLSQEGRKPPITIATLKASVLPMVTVSGIELSPPVTFRLRTGSGPVFLSGLECYETSDLTWEDDEEEEEEEEEEDEDEDADISLEEIPVKQVKRVAPQKQMSIAKKKKVEKEEDETVVRPSPQDKSPWKKEKSTPRAKKPVTKK
Regarding B1, the stoichiometry N in experiment [1] was 3 P1+P2:M.NPM2.

B2: Mouse protamine P1 (natural protein)
chain: MARYRC(pyridylethyl)C(pyridylethyl)RSKSRSRC(pyridylethyl)RRRRRRC(pyridylethyl)RRRRRRC(pyridylethyl)C(pyridylethyl)RRRRRRC(pyridylethyl)C(pyridylethyl)RRRRSYTIRC(pyridylethyl)KKY
For the molecule B2, in experiment [2], the binding result was “binds”.

The values above are taken from publication PMC5600342 (Biochemistry and Biophysics Reports, 2016).
